This experiment has as its system phosphorylation of HER3, AKT and ERK. The experiment in a line: NRG-induced phosphorylation of HER3, AKT and ERK in N87 cells (immunoblotting). The format is cell-based, human. To be noted: mAb 10 μg/ml 20 min, then NRG 20 ng/ml. As to the method: (FIG. 9A) The indicated mAbs were checked for their capacity to compete with fluorescent dye labeled NRG. […] After washes, the labeled-NRG was added and incubated for 30 min at 4° C. Fluorescence intensity at 670 nm was determined following 3 final washes. (FIG. 9B) The ability of the mAbs to avoid NRG-induced phosphorylation of HER3, AKT and ERK, was studied with N87 cells. After 20 min treatment with the indicated mAbs (10 μg/ml) at 37° C., NRG (20 ng/ml) was added to the cells for 10 min. The cells were then lysed, and equal quantities of protein lysates were run on 9% bisacrylamide gel before immunoblotting with the indicated primary antibodies. (FIG. 9C) The capacity of mAb NG33 to avoid NRG-induced migration was checked with OVCAR-5 cells and the quantification reported in a histogram. […] Signals of triplicates were quantified. **** […] (ANOVA and post hoc tests).
FIGS. 12A-D show a combination of two mAbs directed to two different epitopes of HER3. […] After ah incubation, the plate was washed 4 times with KREBS buffer, and the fluorescence intensity at 610 nm was measured using a fluorescence microplate reader. […] (FIG. 12D) The combination's capacity to modulate NRG-induced phosphorylation of HER3, AKT and ERK was evaluated using N87 cells. […] The cells were then lysed, and equal quantities of lysate protein were electrophoresed before immunoblotting, as indicated. […]
Background: Immunoblotting shows a protein as a band on a membrane.

The results in this text go back to patent publication US10526416B2, “Anti-HER3 antibodies and uses of same” (Yeda Research and Development Co. Ltd., priority 2014, dated 2020).

B1: XC252: anti-HER3 mAb generated as described in Chen X, et al. (1996); heavy and light chain SEQ ID NOs: 49 and 53 (antibody, V domains shown)
VH: EVQLQQSGAELVRPGVSVKISCKGSGYTFTDYAMHWVKQSHAKSLEWIGVISTYYGDPRDNQKFKGKATMTVDKSSSTAYMELARLTSEDSAIYYCARGDYDWYAIDYWGQGTSVTVSS
VL: DVVMTQTPLSLPVSLGDQASISCRSSQSIVHSDGNTYLEWYLQKPGQSPKLLIYKVSNRFSGVPDRFSGSGSGTDFTLKISRVEAEDLGVYYCFQGSHVPPTFGGGTKLEIK
modifications: VH chain of XC252 polypeptide; VL chain of XC252 polypeptide
In the case of B1, the “effect on NRG-induced HER3 phosphorylation and AKT and ERK activation” value is reported as “partly decrease the phosphorylation level of HER3”.
